According to article PMC6249546:

target: T1, His-EmrR (Chromobacterium violaceum ATCC 12472) (UniProt Q7P000); assay: EMSA; settings: 32P-labelled PCR probes, 100-300 nM DTT-reduced His-EmrR, interaction buffer as in da Silva Neto 2012 and Previato-Mello 2017 (composition, pH …)
T1 sequence: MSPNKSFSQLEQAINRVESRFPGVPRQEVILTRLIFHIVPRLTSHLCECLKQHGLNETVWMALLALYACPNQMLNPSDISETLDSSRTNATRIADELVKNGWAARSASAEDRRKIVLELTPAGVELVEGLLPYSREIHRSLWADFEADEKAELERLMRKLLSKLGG

With “TTGGATCCGAAGGCCAGGCGCTGCATCTGGGCGGCGCCCACCCGAGCGCGCTGGAAAAACTGCTGTTCCCGCGGCTGGAAACCAGCCAGCTGCTGGGCGGCGGCAGCCAGCCGCTGCGGCTGACGCTGAGCTGGCAACAGGGTTGGGCGCAGATCGGCCTGTTCGAATGGACGGTGTGGCTGCTGCTGTCGCTGCTGCTGGGCCTGGGCATAGGCCTGGCCGGCTTCAGCTTCGTGCGCAGCAGCGACAGCTGCAGTAAT (double strand) [CV_0208 coding region]” as the sequence, how does the binding read?
Its binding is “binds more weakly”.

“TTGGCACTGCAGCAAATAAGCCTGCCCGTGGCGGCGCCTCCCCCGCCGCCACTCTCCCTCCTTCCCCCGTCTCGCCGGCCCTTCGGCTGCCGCCGTCTACCGGCCGCCAATCTAACCCATTGTCATTTCGCCACACTTTTCGCCAGCATTTCATTAGCAAGGTTATTATTACTTGCAAAATAATACCGCACGTTACTAAAATGGCCGCATGAGTCCAAACAAGAAGCTTATA (double strand) [emrR promoter]” was tested. Which binding did it give?
The binding was “binds”.

For “TTGGCAGAGCTCCAATGATGCATGTCGGTCCGGACGTGATTAATCTGGTGATAATCACCCGGGTTATTATTCGAGTGAAAAAGCGCGGGCTCAGCCAAGCTTATA (double strand) [emrCAB promoter]”, which binding is on record?
Its binding is “binds”.
